Assay results published in the Immune Epitope Database (IEDB).

How the values were obtained:
HLA-A*26:01 = test: IEDB peptide-MHC binding, purified MHC/competitive/radioactivity; filed as Kd, often an IC50 or EC50 that approximates it; ≥ and ≤ were set here for values at or beyond the usual limits of such assays
HLA-A*02:03 = test: as above
HLA-A*02:06 = test: as above
HLA-A*02:02 = test: as above
HLA-A*02:01 = test: IEDB peptide-MHC binding, purified MHC/competitive/fluorescence; ≥ and ≤ were set here for values at or beyond the usual limits of such assays
HLA-A*23:01 = test: IEDB peptide-MHC binding, purified MHC/competitive/radioactivity; filed as Kd, often an IC50 or EC50 that approximates it; ≥ and ≤ were set here for values at or beyond the usual limits of such assays
HLA-A*24:02 = test: as above
HLA-A*30:02 = test: as above
HLA-B*58:01 = test: IEDB peptide-MHC binding, purified MHC/direct/fluorescence; filed as Kd, often an IC50 or EC50 that approximates it; ≥ and ≤ were set here for values at or beyond the usual limits of such assays; conditions: source organism: Mycobacterium tuberculosis
HLA-A*29:02 = test: IEDB peptide-MHC binding, purified MHC/competitive/radioactivity; filed as Kd, often an IC50 or EC50 that approximates it; ≥ and ≤ were set here for values at or beyond the usual limits of such assays
HLA-A*03:01 = test: IEDB peptide-MHC binding, purified MHC/direct/fluorescence; filed as Kd, often an IC50 or EC50 that approximates it; ≥ and ≤ were set here for values at or beyond the usual limits of such assays; conditions: source organism: Mammarenavirus juninense
HLA-A*01:01 = test: IEDB peptide-MHC binding, purified MHC/competitive/radioactivity; filed as Kd, often an IC50 or EC50 that approximates it; ≥ and ≤ were set here for values at or beyond the usual limits of such assays
HLA-B*15:01 = test: IEDB peptide-MHC binding, purified MHC/direct/fluorescence; filed as Kd, often an IC50 or EC50 that approximates it; ≥ and ≤ were set here for values at or beyond the usual limits of such assays; conditions: source organism: Salmonella enterica subsp. enterica serovar Typhimurium
[1] = source organism: Dengue virus 1 Brazil/97-11/1997
[2] = source organism: Vaccinia virus WR
[3] = source organism: Zaire ebolavirus
[4] = source organism: Dengue virus 2 Jamaica/1409/1983
[5] = source organism: Dengue virus 3 Martinique/1243/1999
[6] = source organism: Mammarenavirus brazilense
[7] = source organism: SARS coronavirus Tor2
[8] = source organism: Dengue virus 4 Philippines/H241/1956
[9] = source organism: Mammarenavirus guanaritoense

NTYKRSGIM was tested, and the Kd (HLA-A*26:01; [1]) was 6.55 µM.

Sequence PIPYSRVNHA has a Kd (HLA-A*02:03; [2]) of 15.3 µM, a Kd (HLA-A*02:06; [2]) of 1.45 µM and a Kd (HLA-A*02:02; [2]) of 11.7 µM.

In the case of PRCRYVHKV, the IC50 (HLA-A*02:01; [3]) is reported as ≥ 3070 µM.

For PTRTWKVLSI, the Kd (HLA-A*02:03; [2]) was 15.1 µM, the Kd (HLA-A*02:06; [2]) was ≥ 69.8 µM and the Kd (HLA-A*02:02; [2]) was ≥ 41.9 µM.

PTSETMYLTM gave a Kd (HLA-A*02:03; [2]) of 0.191 µM, a Kd (HLA-A*02:06; [2]) of 0.915 µM and a Kd (HLA-A*02:02; [2]) of 0.862 µM.

With PYLGKREDQW the Kd (HLA-A*23:01; [4]) was 1.39 µM and the Kd (HLA-A*24:02; [4]) was 2.98 µM.

PYMPTVIEHL was tested, and the Kd (HLA-A*23:01; [5]) was 0.0434 µM and the Kd (HLA-A*24:02; [5]) was 0.0462 µM.

With QFLFQLNDT the IC50 (HLA-A*02:01; source organism: Sudan ebolavirus) was 10.8 µM.

For QILDNAAKYV, the Kd (HLA-A*02:03; [2]) was 3.87 µM, the Kd (HLA-A*02:06; [2]) was 11.4 µM and the Kd (HLA-A*02:02; [2]) was 3.93 µM.

QKAALSEGVY showed a Kd (HLA-A*30:02; source organism: Dengue virus 4 Singapore/8976/1995) of 0.139 µM.

QLYTISSESL was tested, and the Kd (HLA-A*02:03; [2]) was 0.245 µM, the Kd (HLA-A*02:06; [2]) was 4.75 µM and the Kd (HLA-A*02:02; [2]) was 0.0717 µM.

In the case of QVKELGIAI, the Kd (HLA-A*02:03; [2]) is reported as 0.882 µM, the Kd (HLA-A*02:06; [2]) is reported as 3.71 µM and the Kd (HLA-A*02:02; [2]) is reported as 9.05 µM.

For QYIYMGEPLE, the Kd (HLA-A*24:02; [4]) was 9.09 µM.

In the case of RLDDDGNFQL, the IC50 (HLA-A*02:01; source organism: West Nile virus NY-99) is reported as 0.847 µM.

RSTYRLDGW gave a Kd (HLA-B*58:01) of 0.0453 µM.

For RTRLYDYFT, the Kd (HLA-A*02:03; [2]) was 3.05 µM, the Kd (HLA-A*02:06; [2]) was ≥ 48.5 µM and the Kd (HLA-A*02:02; [2]) was 7.1 µM.

SAEVERLMEL showed a Kd (HLA-A*02:03; [2]) of 2.5 µM, a Kd (HLA-A*02:06; [2]) of 1.25 µM and a Kd (HLA-A*02:02; [2]) of 1.28 µM.

For SFYCDPKRYF, the Kd (HLA-A*23:01; [6]) was 0.0846 µM, the Kd (HLA-A*29:02; [6]) was 0.0294 µM and the Kd (HLA-A*24:02; [6]) was 0.443 µM.

Sequence SGLLIVKTV has an IC50 (HLA-A*02:01; [3]) of 2.29 µM.

With SKKEGGAMY the Kd (HLA-A*30:02; [4]) was ≥ 76.9 µM.

For SLFNRGRLK, the Kd (HLA-A*03:01) was 0.0424 µM.

SLVITYCLV gave a Kd (HLA-A*02:03; [2]) of 0.201 µM, a Kd (HLA-A*02:06; [2]) of 0.269 µM and a Kd (HLA-A*02:02; [2]) of 1.69 µM.

SQMETDFLEL was tested, and the Kd (HLA-A*02:03; [7]) was 0.597 µM, the Kd (HLA-A*02:06; [7]) was 0.0206 µM and the Kd (HLA-A*02:02; [7]) was 0.227 µM.

With STITLLCLI the Kd (HLA-A*26:01; source organism: Dengue virus 4 Dominica/814669/1981) was 0.867 µM.

Sequence SWILRNPGF has a Kd (HLA-A*23:01; [8]) of 0.496 µM and a Kd (HLA-A*24:02; [8]) of 0.369 µM.

In the case of TLFIDRGSI, the Kd (HLA-A*02:03; [2]) is reported as 0.802 µM, the Kd (HLA-A*02:06; [2]) is reported as ≥ 77.1 µM and the Kd (HLA-A*02:02; [2]) is reported as 2.1 µM.

In the case of TTENAAYQVL, the Kd (HLA-A*02:03; [2]) is reported as ≥ 70.4 µM, the Kd (HLA-A*02:06; [2]) is reported as ≥ 69.8 µM and the Kd (HLA-A*02:02; [2]) is reported as ≥ 29.7 µM.

Work on TTIGTIAGGV yielded a Kd (HLA-A*02:03; [2]) of 0.0426 µM, a Kd (HLA-A*02:06; [2]) of 0.0843 µM and a Kd (HLA-A*02:02; [2]) of 0.741 µM.

Work on TTLLNETAKV yielded a Kd (HLA-A*02:03; [2]) of 0.00017 µM, a Kd (HLA-A*02:06; [2]) of 1.65 µM and a Kd (HLA-A*02:02; [2]) of 1.64 µM.

TWMDLLRALI gave a Kd (HLA-A*23:01; [8]) of 0.0217 µM and a Kd (HLA-A*24:02; [8]) of 0.128 µM.

In the case of TWVTYGTCTT, the Kd (HLA-A*24:02; source organism: Dengue virus 2 Peru/IQT2913/1996) is reported as ≥ 70.3 µM.

VFGSVYTTMF gave a Kd (HLA-A*23:01; [8]) of 0.0573 µM and a Kd (HLA-A*24:02; [8]) of 1.17 µM.

VFGTAYGVLF showed a Kd (HLA-A*23:01; [1]) of 0.0344 µM and a Kd (HLA-A*24:02; [1]) of 0.0737 µM.

With VFHELPSLC the Kd (HLA-A*26:01; [9]) was ≥ 77.9 µM and the Kd (HLA-A*01:01; [9]) was ≥ 78.1 µM.

VFTTNIWLK was tested, and the Kd (HLA-A*23:01; [4]) was ≥ 30.9 µM.

VHTWTEQYKF was tested, and the Kd (HLA-A*23:01; [4]) was 0.889 µM and the Kd (HLA-A*24:02; [4]) was 3.78 µM.

In the case of VIDLEPISY, the Kd (HLA-A*01:01; [8]) is reported as 0.0517 µM.

VIPDELIDV was tested, and the Kd (HLA-A*02:03; [2]) was 0.0438 µM, the Kd (HLA-A*02:06; [2]) was 0.556 µM and the Kd (HLA-A*02:02; [2]) was 0.609 µM.

Sequence VLALYSPPL has a Kd (HLA-A*02:03; [2]) of 0.000412 µM, a Kd (HLA-A*02:06; [2]) of 0.0326 µM and a Kd (HLA-A*02:02; [2]) of 0.000224 µM.

For VLCSSSPTI, the Kd (HLA-A*23:01; [9]) was 0.457 µM, the Kd (HLA-A*29:02; [9]) was ≥ 30.7 µM and the Kd (HLA-A*24:02; [9]) was 1.67 µM.

In the case of WIPYFGPAA, the IC50 (HLA-A*02:01; [3]) is reported as 0.894 µM.

YAGTIKESL showed a Kd (HLA-A*02:03; [2]) of 2.49 µM, a Kd (HLA-A*02:06; [2]) of 3.3 µM and a Kd (HLA-A*02:02; [2]) of 2.07 µM.

Sequence YIFFASFYYI has a Kd (HLA-A*02:03; [7]) of 0.0598 µM, a Kd (HLA-A*02:06; [7]) of 0.0008 µM and a Kd (HLA-A*02:02; [7]) of 0.00046 µM.

In the case of YLGPRVCWL, the Kd (HLA-A*02:03; [2]) is reported as 0.00336 µM, the Kd (HLA-A*02:06; [2]) is reported as 0.0232 µM and the Kd (HLA-A*02:02; [2]) is reported as 0.000901 µM.

With YNIDKIKDV the IC50 (HLA-A*02:01; source organism: Vaccinia virus) was 9.18 µM.

With YQRPFGGQS the Kd (HLA-B*15:01) was 3.71 µM.

In the case of YVEHDPRLV, the Kd (HLA-A*02:03; [2]) is reported as 0.711 µM, the Kd (HLA-A*02:06; [2]) is reported as ≥ 22.5 µM and the Kd (HLA-A*02:02; [2]) is reported as 1.18 µM.

Sequence YVHEGVSYEV has a Kd (HLA-A*02:03; [2]) of 0.071 µM, a Kd (HLA-A*02:06; [2]) of 0.00908 µM and a Kd (HLA-A*02:02; [2]) of 0.0129 µM.
